Laboratory results published in patent US20260242478A1 (published 2026).
Where no end group is shown, it is not given here.

Tests used:
[1] = molecular target: T1, Anti-CD28 Fab (SEQ ID NOs: 696, 697); assay: phage binding ELISA; Fab-coated wells pre-incubated with CD28 antigen as competitor, anti-M13 HRP detection;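 note: crude clonal phage supernatants from panned colonies added to wells after blocking buffer plus CD28 treatment, bound phage measured after a brief incubation and washing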
T1 construct: In the phage ELISA the Fab was biotinylated and captured on neutravidin coated plates
T1 sequence (VH, as listed by the source, chain 1 of 2): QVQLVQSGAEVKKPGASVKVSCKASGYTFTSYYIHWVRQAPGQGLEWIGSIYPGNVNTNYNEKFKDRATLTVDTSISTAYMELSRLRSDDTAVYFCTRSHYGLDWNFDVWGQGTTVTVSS
T1 sequence (VL, as listed by the source, chain 2 of 2): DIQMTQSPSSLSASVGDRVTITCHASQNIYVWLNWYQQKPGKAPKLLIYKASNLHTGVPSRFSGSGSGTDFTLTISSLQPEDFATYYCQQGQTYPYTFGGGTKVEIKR
Protocol: (§1) After panning, phage infected bacteria were plated out and colonies picked into 96 well blocks. Clonal phage was then amplified and separated from bacterial cells via centrifugation.
(§2) Clonal phage were harvested as crude supematants and screened via standard ELISAs. […] Prior to the addition of clonal phage, wells were incubated with blocking buffer and CD28 antigen or blocking buffer alone. Without washing or aspirating, clonal phage supematants were then added to the wells and incubated for a short time. Wells were then washed followed by detection of bound phage using a horse radish conjugated anti-M13 antibody. Clonal phage of interest were then sent for sequence analysis.

[2] = molecular target: T1, Anti-CD28 Fab (SEQ ID NOs: 696, 697); assay: phage binding ELISA; biotinylated anti-CD28 Fab on neutravidin plate, clonal phage supernatant, anti-M13 HRP detection
Protocol: as §1, §2

[3] = molecular target: T2, Anti-CD28 Fab (SEQ ID NOs: 696, 697); assay: phage ELISA; Fab-coated wells pre-incubated with CD28 antigen as competitor, anti-M13-HRP detection
T2 construct: In the phage ELISA the Fab was biotinylated and captured on neutravidin coated plates
T2 sequence (VH, as listed by the source, chain 1 of 2): as the sequence (VH, as listed by the source, chain 1 of 2) above
T2 sequence (VL, as listed by the source, chain 2 of 2): as the sequence (VL, as listed by the source, chain 2 of 2) above
Protocol: as §1, §2

[4] = molecular target: T2, Anti-CD28 Fab (SEQ ID NOs: 696, 697); assay: phage ELISA; biotinylated anti-CD28 Fab on neutravidin plates, bound phage detected with anti-M13-HRP
Protocol: as §1, §2

[5] = molecular target: T3, Anti-CD28 Fab (SEQ ID NOs: 696, 697); assay: phage binding ELISA; Fab wells pre-incubated with CD28 antigen as competitor, anti-M13 HRP
T3 construct: Biotinylated and captured on neutravidin coated plates in the phage ELISA
T3 sequence (VH, as listed by the source, chain 1 of 2): as the sequence (VH, as listed by the source, chain 1 of 2) above
T3 sequence (VL, as listed by the source, chain 2 of 2): as the sequence (VL, as listed by the source, chain 2 of 2) above
Protocol: as §1, §2

[6] = molecular target: T3, Anti-CD28 Fab (SEQ ID NOs: 696, 697); assay: phage binding ELISA; biotinylated Fab on neutravidin plate, clonal phage supernatant, anti-M13 HRP;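 note: clones picked after panning, added to wells pre-incubated with CD28 antigen or with blocking buffer only, no wash before phage addition, bound phage read after washing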
Protocol: as §1, §2

B1: Phage-984 (peptide)
peptide: YCQGHLPQYVEKCL
modifications: cysteine pairing not given here; also: displayed fused to phage pIII protein, fusion end and linker not given here
notes: Clonal phage of the peptide-87 library, tested as crude supernatant; not shown: fused to the pIII filament protein of the bacteriophage
In the case of B1, the “Anti-CD28 Fab signal in the presence of CD28” value [1] is reported as 0.08 and the “Anti-CD28 Fab signal (phage binding ELISA)” value [2] is reported as 1.57.

YCDGHSDQYMWKCL (Tested as clonal phage supernatant) [Phage-711] was tested, and the “Phage binding ELISA, Anti-CD28 Fab signal in the presence of CD28” value (from here on “Phage binding ELISA … of CD28”) [3] was 0.11 and the “Phage binding ELISA, Anti-CD28 Fab signal” value [4] was 2.

B2: Phage-986 (peptide)
peptide: YCDGHSQEYMAHCL
modifications: cysteine pairing not given here; also: displayed fused to phage pIII protein, fusion end and linker not given here
notes: as for B1
In the case of B2, the “Anti-CD28 Fab signal in the presence of CD28” value [1] is reported as 0.07 and the “Anti-CD28 Fab signal (phage binding ELISA)” value [2] is reported as 1.56.

B3: Phage-534 (peptide)
peptide: YCDGHSPLYMWKCL
modifications: cysteine pairing not given here; also: displayed on phage as fusion to pIII, linker, pIII sequence and order not given here
notes: Clonal phage supernatant; not shown: pIII filament protein of the bacteriophage to which the peptide is fused
B3 was tested, and the “Anti-CD28 Fab signal in the presence of CD28” value [5] was 0.08 and the “Anti-CD28 Fab (SEQ ID NOs: 696, 697) signal” value [6] was 2.34.

B4: Phage-985 (peptide)
peptide: YCEGHLDMYVWKCL
modifications: cysteine pairing not given here; also: displayed fused to phage pIII protein, fusion end and linker not given here
notes: as for B1
B4 was tested, and the “Anti-CD28 Fab signal in the presence of CD28” value [1] was 0.08 and the “Anti-CD28 Fab signal (phage binding ELISA)” value [2] was 1.56.

YCVGHLPQYMEKCL (Tested as clonal phage supernatant) [Phage-717] was tested, and the “Phage binding ELISA … of CD28” value [3] was 0.08 and the “Phage binding ELISA, Anti-CD28 Fab signal” value [4] was 1.98.

YCDGHSPIYMSKCL (Tested as clonal phage supernatant) [Phage-710] was tested, and the “Phage binding ELISA … of CD28” value [3] was 0.09 and the “Phage binding ELISA, Anti-CD28 Fab signal” value [4] was 2.

With YCDGHLPIYMTQCL (Tested as clonal phage supernatant) [Phage-721] the “Phage binding ELISA … of CD28” value [3] was 0.08 and the “Phage binding ELISA, Anti-CD28 Fab signal” value [4] was 1.97.

B5: Phage-531 (peptide)
peptide: YCDGHSPMYILKCL
modifications: cysteine pairing not given here; also: displayed on phage as fusion to pIII, linker, pIII sequence and order not given here
notes: as for B3
In the case of B5, the “Anti-CD28 Fab signal in the presence of CD28” value [5] is reported as 0.08 and the “Anti-CD28 Fab (SEQ ID NOs: 696, 697) signal” value [6] is reported as 2.34.

B6: Phage-529 (peptide)
peptide: YCQGHLPMYMAKCL
modifications: cysteine pairing not given here; also: displayed on phage as fusion to pIII, linker, pIII sequence and order not given here
notes: as for B3
For B6, the “Anti-CD28 Fab signal in the presence of CD28” value [5] was 0.08 and the “Anti-CD28 Fab (SEQ ID NOs: 696, 697) signal” value [6] was 2.34.

B7: Phage-532 (peptide)
peptide: YCQGHLPMYMEKCL
modifications: cysteine pairing not given here; also: displayed on phage as fusion to pIII, linker, pIII sequence and order not given here
notes: as for B3
With B7 the “Anti-CD28 Fab signal in the presence of CD28” value [5] was 0.09 and the “Anti-CD28 Fab (SEQ ID NOs: 696, 697) signal” value [6] was 2.34.

B8: Phage-527 (peptide)
peptide: YCDGHLPEYMSKCL
modifications: cysteine pairing not given here; also: displayed on phage as fusion to pIII, linker, pIII sequence and order not given here
notes: as for B3
In the case of B8, the “Anti-CD28 Fab signal in the presence of CD28” value [5] is reported as 0.14 and the “Anti-CD28 Fab (SEQ ID NOs: 696, 697) signal” value [6] is reported as 2.35.

B9: Phage-536 (peptide)
peptide: YCDGHLPIYMSKCL
modifications: cysteine pairing not given here; also: displayed on phage as fusion to pIII, linker, pIII sequence and order not given here
notes: as for B3
In the case of B9, the “Anti-CD28 Fab signal in the presence of CD28” value [5] is reported as 0.08 and the “Anti-CD28 Fab (SEQ ID NOs: 696, 697) signal” value [6] is reported as 2.32.

B10: Phage-530 (peptide)
peptide: YCDGHLPEYMMKCL
modifications: cysteine pairing not given here; also: displayed on phage as fusion to pIII, linker, pIII sequence and order not given here
notes: as for B3
B10 was tested, and the “Anti-CD28 Fab signal in the presence of CD28” value [5] was 0.11 and the “Anti-CD28 Fab (SEQ ID NOs: 696, 697) signal” value [6] was 2.34.

In the case of YCEGHLPMYFLKCM (Tested as clonal phage supernatant) [Phage-720], the “Phage binding ELISA … of CD28” value [3] is reported as 0.06 and the “Phage binding ELISA, Anti-CD28 Fab signal” value [4] is reported as 1.97.

In the case of YCDGHLWEYMDKCL (Tested as clonal phage supernatant) [Phage-719], the “Phage binding ELISA … of CD28” value [3] is reported as 0.06 and the “Phage binding ELISA, Anti-CD28 Fab signal” value [4] is reported as 1.97.

B11: Phage-539 (peptide)
peptide: YCEGHLPEYMLKCL
modifications: cysteine pairing not given here; also: displayed on phage as fusion to pIII, linker, pIII sequence and order not given here
notes: as for B3
For B11, the “Anti-CD28 Fab signal in the presence of CD28” value [5] was 0.09 and the “Anti-CD28 Fab (SEQ ID NOs: 696, 697) signal” value [6] was 2.32.

B12: Phage-538 (peptide)
peptide: YCDGHLPEYREKCF
modifications: cysteine pairing not given here; also: displayed on phage as fusion to pIII, linker, pIII sequence and order not given here
notes: as for B3
With B12 the “Anti-CD28 Fab signal in the presence of CD28” value [5] was 0.07 and the “Anti-CD28 Fab (SEQ ID NOs: 696, 697) signal” value [6] was 2.32.

With YCEGHLAEYMDKCL (Tested as clonal phage supernatant) [Phage-722] the “Phage binding ELISA … of CD28” value [3] was 0.07 and the “Phage binding ELISA, Anti-CD28 Fab signal” value [4] was 1.96.

In the case of YCEGHLSQYMQKCL (Tested as clonal phage supernatant) [Phage-709], the “Phage binding ELISA … of CD28” value [3] is reported as 0.09 and the “Phage binding ELISA, Anti-CD28 Fab signal” value [4] is reported as 2.

YCDGHLGIYMTKCL (Tested as clonal phage supernatant) [Phage-718] was tested, and the “Phage binding ELISA … of CD28” value [3] was 0.08 and the “Phage binding ELISA, Anti-CD28 Fab signal” value [4] was 1.98.

B13: Phage-535 (peptide)
peptide: YCDGHLPMYMQKCL
modifications: cysteine pairing not given here; also: displayed on phage as fusion to pIII, linker, pIII sequence and order not given here
notes: as for B3
B13 was tested, and the “Anti-CD28 Fab signal in the presence of CD28” value [5] was 0.11 and the “Anti-CD28 Fab (SEQ ID NOs: 696, 697) signal” value [6] was 2.33.

In the case of YCAGHLPMYMHKCL (Tested as clonal phage supernatant) [Phage-714], the “Phage binding ELISA … of CD28” value [3] is reported as 0.18 and the “Phage binding ELISA, Anti-CD28 Fab signal” value [4] is reported as 1.99.

B14: Phage-528 (peptide)
peptide: YCDGHLPQYMAKCL
modifications: cysteine pairing not given here; also: displayed on phage as fusion to pIII, linker, pIII sequence and order not given here
notes: as for B3
B14 was tested, and the “Anti-CD28 Fab signal in the presence of CD28” value [5] was 0.15 and the “Anti-CD28 Fab (SEQ ID NOs: 696, 697) signal” value [6] was 2.35.

B15: Phage-533 (peptide)
peptide: YCEGHLPQYMAKCL
modifications: cysteine pairing not given here; also: displayed on phage as fusion to pIII, linker, pIII sequence and order not given here
notes: as for B3
For B15, the “Anti-CD28 Fab signal in the presence of CD28” value [5] was 0.14 and the “Anti-CD28 Fab (SEQ ID NOs: 696, 697) signal” value [6] was 2.34.

In the case of YCDGHSQEYIAKCL (Tested as clonal phage supernatant) [Phage-715], the “Phage binding ELISA … of CD28” value [3] is reported as 0.07 and the “Phage binding ELISA, Anti-CD28 Fab signal” value [4] is reported as 1.99.

For YCEGHAAEYMMKCL (Tested as clonal phage supernatant) [Phage-713], the “Phage binding ELISA … of CD28” value [3] was 0.07 and the “Phage binding ELISA, Anti-CD28 Fab signal” value [4] was 1.99.

For YCDGHLPQYMSKCL (Tested as clonal phage supernatant) [Phage-712], the “Phage binding ELISA … of CD28” value [3] was 0.1 and the “Phage binding ELISA, Anti-CD28 Fab signal” value [4] was 2.

YCDGHMPQYMSKCL (Tested as clonal phage supernatant) [Phage-716] was tested, and the “Phage binding ELISA … of CD28” value [3] was 0.08 and the “Phage binding ELISA, Anti-CD28 Fab signal” value [4] was 1.98.

B16: Phage-983 (peptide)
peptide: YCDGHLPMYMKKCL
modifications: cysteine pairing not given here; also: displayed fused to phage pIII protein, fusion end and linker not given here
notes: as for B1
With B16 the “Anti-CD28 Fab signal in the presence of CD28” value [1] was 0.1 and the “Anti-CD28 Fab signal (phage binding ELISA)” value [2] was 1.57.

B17: Phage-537 (peptide)
peptide: YCEGHSWANLGKCL
modifications: cysteine pairing not given here; also: displayed on phage as fusion to pIII, linker, pIII sequence and order not given here
notes: as for B3
With B17 the “Anti-CD28 Fab signal in the presence of CD28” value [5] was 0.08 and the “Anti-CD28 Fab (SEQ ID NOs: 696, 697) signal” value [6] was 2.32.
